The assay concerns the target CCR5 (UniProt P51681). The experiment in a line: cell-based or functional assay.

We go through ten substances from patent US7164000.

Sequence of wild-type RANTES (P13501 24-91): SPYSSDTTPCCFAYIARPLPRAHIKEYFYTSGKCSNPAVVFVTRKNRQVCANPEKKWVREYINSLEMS

Consider “RANTES mutant pVU5 (Ser 1 to Cys) (from UniProt P13501 24-91) (ligand)”, for which the relative antiviral activity (ID90 RANTES/ID90 mutant), MDM, HIV-1BaL (fold compared to wild-type RANTES) was 0.25; the relative antiviral activity (ID90 RANTES/ID90 mutant), PBMC, HIV-1 6366 (fold compared to wild-type RANTES) was determined as 0.23; the relative antiviral activity (ID90 RANTES/ID90 mutant), PBMC, HIV-1BaL (fold compared to wild-type RANTES) was 0.24.

Take “RANTES mutant pVU14 (Tyr 3 to Ala) (from UniProt P13501 24-91) (ligand)”: the relative antiviral activity (ID90 RANTES/ID90 mutant), MDM, HIV-1BaL (fold compared to wild-type RANTES) was determined as 0.23; the relative antiviral activity (ID90 RANTES/ID90 mutant), PBMC, HIV-1 6366 (fold compared to wild-type RANTES) was determined as 0.1; the relative antiviral activity (ID90 RANTES/ID90 mutant), PBMC, HIV-1BaL (fold compared to wild-type RANTES) was 0.22.

Consider “RANTES mutant pVU15 (Ser 1 to Cys, Ser 5 to Cys) (from UniProt P13501 24-91) (ligand)”, for which the concentration giving the highest inhibition of wild-type RANTES activity (calcium mobilisation) came to 500 ng/mL; the relative antiviral activity (ID90 RANTES/ID90 mutant), MDM, HIV-1BaL (fold compared to wild-type RANTES) worked out at 4.5; the relative antiviral activity (ID90 RANTES/ID90 mutant), PBMC, HIV-1 6366 (fold compared to wild-type RANTES) came out at 3.3; the relative antiviral activity (ID90 RANTES/ID90 mutant), PBMC, HIV-1BaL (fold compared to wild-type RANTES) was 3.07.

In the case of “RANTES mutant pVU17 (additional N-terminal Leucine) (from UniProt P13501 24-91) (ligand)”, the relative antiviral activity (ID90 RANTES/ID90 mutant), MDM, HIV-1BaL (fold compared to wild-type RANTES) was 11; the relative antiviral activity (ID90 RANTES/ID90 mutant), PBMC, HIV-1 6366 (fold compared to wild-type RANTES) amounted to 1.9; the relative antiviral activity (ID90 RANTES/ID90 mutant), PBMC, HIV-1BaL (fold compared to wild-type RANTES) is 4.6.

Consider “RANTES mutant pVU22 (Tyr 14 to Phe) (from UniProt P13501 24-91) (ligand)”, for which the relative antiviral activity (ID90 RANTES/ID90 mutant), PBMC, HIV-1 6366 (fold compared to wild-type RANTES) worked out at 2.5 and the relative antiviral activity (ID90 RANTES/ID90 mutant), PBMC, HIV-1BaL (fold compared to wild-type RANTES) is 10.

Turning to “RANTES mutant pVU24 (Arg 17 to Ala) (from UniProt P13501 24-91) (ligand)”, the relative antiviral activity (ID90 RANTES/ID90 mutant), PBMC, HIV-1 6366 (fold compared to wild-type RANTES) was determined as 1.3 and the relative antiviral activity (ID90 RANTES/ID90 mutant), PBMC, HIV-1BaL (fold compared to wild-type RANTES) came out at 1.09.

“RANTES mutant pVU26 (Arg 44 to Glu) (from UniProt P13501 24-91) (ligand)” came in with a relative antiviral activity (RANTES ID50/mutant ID50), PBMC, HIV-1BaL (fold compared to wild-type RANTES) of 3.16.

In the case of “RANTES mutant pVU38 (Asp 6 to Arg) (from UniProt P13501 24-91) (ligand)”, the relative antiviral activity (ID90 RANTES/ID90 mutant), PBMC, HIV-1 6366 (fold compared to wild-type RANTES) is 0.13 and the relative antiviral activity (ID90 RANTES/ID90 mutant), PBMC, HIV-1BaL (fold compared to wild-type RANTES) is 0.14.

In turn, “RANTES mutant pVU43 (Lys 45 to Glu) (from UniProt P13501 24-91) (ligand)” showed a relative antiviral activity (RANTES ID50/mutant ID50), PBMC, HIV-1BaL (fold compared to wild-type RANTES) of 1.44.

“wild-type RANTES (from UniProt P13501 24-91) (ligand)”: the ID90, inhibition of HIV-1BaL infection of PBMC (p24 antigen) stood at 96 ng/mL.
